For this assay, the target named is NADPH oxidase 3 (NOX3). The assay can be described thus: cell-based or functional assay.

The substance p67^phox/NOXA2 showed a PMA-induced superoxide generation of NOX3 (co-transfected HEK293 cells) of 2 fold.

These data come from US20090263323A1.
